Test results reported in US20150056205A1, “STEROID SPARING AGENTS AND METHODS OF USING SAME” (BIOGEN IDEC MA INC., priority 2004, published 2015).

What was measured:
[1] = system: mice, guinea pigs, and monkeys; conditions: in vivo
Procedure: Single- and multiple-dose toxicity studies have been performed in mice, guinea pigs, and monkeys. All toxicology studies were carried out using natalizumab and included an acute study in guinea pigs, subacute studies in mouse and cynomolgus monkeys, and mutagenicity and tissue cross-reactivity studies.

[2] = system: subjects with active ulcerative colitis; test: open-label single infusion study in active ulcerative colitis; format: in vivo; conditions: for mean PTAI score: 9.7 at Week 0
Procedure: Another earlier study was an open-label safety, tolerability, and efficacy study of a single infusion of 3 mg/kg intravenous natalizumab in male and female subjects with active ulcerative colitis.

[3] = system: subjects with moderately to severely active Crohn's disease; test: placebo-controlled one or two infusion study in moderately to severely active Crohn's disease; format: in vivo; conditions: for subjects withdrawn due to adverse events: placebo 2; for subjects reporting a serious adverse event: placebo 9
Procedure: Another earlier study was a double-blind, placebo-controlled, parallel group, multicenter, efficacy, safety, and tolerability study of either one or two intravenous infusions of placebo, 3 or 6 mg/kg natalizumab in subjects with moderately to severely active Crohn's disease. […] Sixty-eight subjects were randomized to a single infusion of 3 mg/kg, 66 to two infusions of 3 mg/kg at a 4-week interval, 51 to two infusions of 6 mg/kg at a 4-week interval and 63 to receive placebo.

guinea pig EAE = test: guinea pig Experimental Allergic Encephalitis (EAE) model; format: in vivo
Procedure: (§1) The initial dose of natalizumab selected for clinical evaluation was based on non-clinical studies in the guinea pig Experimental Allergic Encephalitis (EAE) model. […] A single dose of 3 mg/kg appeared to provide serum concentrations of natalizumab associated with α4 integrin receptor blockade for up to approximately 3 weeks, and 6 mg/kg for about 6 weeks.

α4 integrin = biological target: T1, α4 integrin (Homo sapiens, UniProt P13612); test: single dose pharmacokinetics and α4 integrin receptor saturation in clinical trials; format: in vivo
T1 construct: endogenous in cells; host or cells: circulating leukocytes of healthy volunteers and MS/IBD subjects (in vivo)
Procedure: as §1
Natalizumab has been evaluated in all clinical trials to date by administration of dose adjusted for bodyweight. […] A single infusion of a higher dose of 6 mg/kg natalizumab produced α4 integrin saturation levels which were slightly higher and more prolonged (approximately 6 weeks).

[4] = Week 6, two infusions of 3 mg/kg

## natalizumab
[1]
  clinical or postmortem evidence of toxicity: did not demonstrate clinical or postmortem evidence of significant toxicity
[2]; 1 week post-treatment
  mean PTAI score: 6.9
[2]; 2 and 4 weeks after single 3 mg/kg infusion, ten subjects
  subjects with good clinical response (PTAI score ≦5): 50%
[2]; 2 weeks post-treatment
  mean PTAI score: 5.7
[2]; 4 weeks post-treatment
  mean PTAI score: 4.9
[2]; between Weeks 0 and 4
  subjects who received no rescue medication: Seventy percent
[2]; of the 30 adverse events reported
  adverse events considered related to study drug: 3
[2]; ten subjects, single 3 mg/kg
  subjects reporting a serious adverse event: Three
[3]; [4]
  remission rate (CDAI<150): 46%
  response rate (≧70 point drop in CDAI): 73%
  response rate (≧100 drop in CDAI): 56%
[3]; Weeks 8 and 12, two infusions of 3 mg/kg and two infusions of 6 mg/kg
  remission rates (CDAI<150): 41-43%
[3]; in vivo
  C-reactive protein: decreases
  quality of life, Inflammatory Bowel Disease Questionnaire: Statistically significant improvements
[3]; single 3.0 mg/kg infusion
  subjects withdrawn due to adverse events: 1
  subjects reporting a serious adverse event: 8
[3]; subjects with active CD
  safety and tolerability: safe and well tolerated
[3]; two 3 mg/kg infusions
  subjects withdrawn due to adverse events: 2
  subjects reporting a serious adverse event: 8
[3]; two 6 mg/kg infusions
  subjects withdrawn due to adverse events: 3
  subjects reporting a serious adverse event: 7
Guinea pig EAE; dose of 3 mg/kg
  signs and symptoms of EAE: significant delay in onset and a reversal of the signs and symptoms of EAE
Guinea pig EAE; lower doses than 3 mg/kg
  signs and symptoms of EAE: not effective
α4 integrin; 3 mg/kg infusion
  time serum concentrations, receptor saturation and inhibition of cell adhesion are maintained: 3-4 weeks
α4 integrin; 3 mg/kg infusion, healthy volunteers, subjects with MS and IBD
  natalizumab serum concentrations maintained: 2.5 to 3.0 µg/mL
α4 integrin; human, in vivo
  clearance, dependence on bodyweight: largely independent of bodyweight
α4 integrin; single dose of 3 mg/kg
  duration of serum concentrations associated with α4 integrin receptor blockade: approximately 3 weeks
α4 integrin; single dose of 6 mg/kg
  duration of serum concentrations associated with α4 integrin receptor blockade: about 6 weeks
α4 integrin; single infusion of 6 mg/kg
  duration of α4 integrin saturation: approximately 6 weeks
